# Paper PMC6546751
# Biological target: FITC-casein (fluorescein-labeled casein, Sigma #C0528) (bovine)
# Assay: not stated; apparent Kd of ClpB for casein in the presence of ATPγS (Supplementary Fig. 1d); method not given
row,Substance,Kd
1,"Escherichia coli ClpB, wild type (from UniProt P63284 1-857) (enzyme)",130 nM
2,Escherichia coli ClpB K476C hyperactive middle-domain variant (from UniProt P63284 1-857) (enzyme),110 nM
